assay: soluble on expression in E. coli; label from the status in PepcDB or PDB records

Sequence | soluble on expression in E. coli
MGSDKIHHHHHHKFIIFTYKDSYINQSATFHSDRTNLNIKREKCDFSFFNISIGHKLSLSLQNLIINPFNYMAFTNNIMIVRHRLLTELVKLWKNGELTTDKIDRLPLELSPRRSKHAGRCCVHKERAVWKYKSLPLLGLDMDDETDELTPLSEYAARSIERANNGKPKDNIMCVIDEACSACVQINYEITDLCRGCTARSCQYNCPKGAVHVHADTGKAWIDHDTCISCGICHKSCPYHAIVYIPVPCEESCPVKAISKDEHGIEHIDENKCIYCGKCMNACPFGAIFEISQTFDVLQRIRKGEQVVAIVAPSILGQFSTTIEQVYGAFRQIGFTDIIEVAQGAMSTVEHEAHELIEKLEEGQKFMTTSCCPSYIELVNKYIPDMKKYVSGTGSPMYYAARIAKEKYPDAKIVFVGPCVAKRKEAQRDEAVDFVMTFEEISSIFDAFEINLEIVQPYAMEFSSVREAHGFAQAGGVMGAVKAFLKMEADKINAIQVSDLNKKNIGTLRAYAKSGKAPGQFIEVMACEGGCITGPSTHSGSNNGKRQLVQELAKQKKTY | not soluble
MAIVKKKKVSAASKAATEKPEVKKAVKRPVAETEAVTPKKKKLVKKVKKSAKKAHEEEPIEQVEKLQLIDDDEDGLEGLSFPGSDDEDLRDDYSDDDSDAGDHLPIEKKSAALDKQKEKIIAEGEEELQLNIANQATFELPTVEEIENEMKSVPNLEIVKQRIADVIQVLGDFKNRRDPQKSRENYVEVLKKDLCSQYGYNDYLMGKFMDLFPNGAELLEFLEANDNPRPVTIRANSLKVKRRDLAKNLINRGMNVDPAADWTKVGLVVYDSQVPVGATPEYLAGHYMIQGLNSLLPVMALAPQPGDRVLDMCSAPGGKTSHIAALMKNSGVLFANDANFTRCRAIIGNLHRLGVNNTVVCNLGGEEFSKIRPNGFDRILLDAPCSGTGVIWKDQSVKTSKDSQDVQRRHTMQRQLILSALDSLDANSPNGGYLVYSTCSVLVEENEAVVNFLLERRHCELVPTGLSIGVDGYTRFRDYRFHPSLSMTKRYYPHVHNIDGFYVAKIKKLSNAKMSKQGVMEKEKEKAAQKSQNKKNKAEAEASESSDDEEEKKNGVEVNGQKKPAKKQQQKKQKADGDDSDDDNNAPMKNIGSGARANKKRRNQKKAAEKQAAVKEDDGFNTVGNVKRAKKPTQFKSKVPKRAAARTGAKSVKNRRKKMLAKQQ | not soluble
LETSWIKPGQASWEWWNDAAPYGPDVNFVSGYNLETYKYYIDFASKYGIRYIIMDEGWAKSTRDPYTPNAKVDVHELIRYAEKKNVGIVLWLTWLTVENNMDLFKTFSEWGVKGVKIDFMDRSDQWMMNFYERVAAEAAKYKLFVDFHGSVSPKGLEYKYPNVLSYEGVRGMEQMGGATPDNSIFMPFMRNAVGAMD | not soluble
WLSRSERYIPMMREVLRKEGLPEDLVYLAMIESGFTPHAVSVASAVGPWQFISGTGKRYDLRIDQWIDERRDPLKSTVAAAMYLKELYSLFNQDWYLAAAGYNAGENKILRAIDKYNTRDFWEISKGSYLKRETKDYVPKLLAAAIIAKEPARYGFADVAYLPPIEFD | not soluble
MAHHHHHHMLCHNVASKVSELLLNRMNCPFLQNVQVRNHKIIKPRNIIKLWKINKGDEVKVISGKDKGKIGEVLSCDKFRNMVKVKGCNLRKIYLDNKFVYIEKKIHYSNVQLIDDFLKTNTKVCIRYTDDNQVIRISKKSGIVIPWPSKTNKEDEFDDVEENPLDTPPQEALKKTYDYKADVKFMNILRQTVNKYNRELS | not soluble
MAGDPNSMFSPQASAAYDDLHEGYATYTGSGYSGGAFLLDPIPSDMEITAINPADLNYGGVKAALAGSYLEVEGPKGKTTVYVTDLYPEGARGALDLSPNAFRKIGNMKDGKINIKWRVVKAPITGNFTYRIKEGSSRWWAAIQVRNHKYPVMKMEYEKDGKWINMEKMDYNHFVSTNLGTGSLKVRMTDIRGKVVKDTIPKLPESGTSKAYTVPGHVQFPELEHHHHHH | soluble
MFQQQNDWETRENAFAAFAMGPLTDFWRQREEAEFIGVGNIPVRFVRFRNDSNDRTIVICPGRIESYVKYAELAYDLFHLGFDIFIIDHRGQGRSGRMLSDPHRGHVDHFNDYVEDLAAFWQQEIEPGPWRKRYILAHSMGGAIATLFLQRHRVRCDAIALTAPMFGIVIRLPSFMVRHILDWAEGHQRIREDYAIGTGQWRALPFGMNALTHSRQRYQRNLRFYADEPQLRVGGPTWHWVREGILAGEQVLAGASDDTTPTLLIQAEEERVVDNRTHDRFCEIRAAAGYPCEGGKPLVIKGAYHEILFEKDAMRSVALNAIVEFFNKPNLSSGNRFA | not soluble
MSEYRVNHEPVFMLASSPWRESSLWVEAFSRRYGRVALLARSARKRQSELRGVLVPFVPVSVSWYGSQELKTLHRAEWVGGWRQPQGRALFGGLYVNELVLKLTAREDPVPELYDALAEVMEAVCCKAAYIDDLRRFEWRLLNLLGVAPDLNRDGDGGTIAAGGTYLVRPETAVFPVGKGFAVPPHAAGVVAPGQSLIDLREGSFRTAESLQQALKITRLFIRHLLPEGLKSRQVLEQIRQFDRKETARETVPTSDGTASNAV | not soluble
MSLSQNASVGIVMPQKIPFEMPLVLENGKTLPRFDLMIETYGELNAEKNNAVLICHALSGNHHVAGRHSAEDKYTGWWDNMVGPGKPIDTERFFVVGLNNLGGCDGSSGPLSINPETGREYGADFPVVTVKDWVKSQAALADYLGIEQWAAIVGGSLGGMQALQWTISYPERVRHALVIASAPKLSTQNIAFNDVARQAILTDPDFNEGHYRSHNTVPARGLRIARMMGHITYLAEDGLGKKFGRDLRSNGYQYGFGVEFEVESYLRYQGDKFVGRFDANTYLLMTKALDYFDPAADFGDSLTRALQNVKAKFFVASFSTDWRFAPERSHELVKALIAAQKSVQYIEVKSAHGHDAFLMEDEAYMRAVAAYMNNVYKECQQEGHHHHHH | soluble
MPDGAQIQGLRPNGQSMEADMKLAVVTGQIVCTVRHQGLAHDKLLMVEMIDAQGNPDGQCAVAIDSIGAGTGEWVLLVSGSSARQAHRSELSPVDLCVIGIVDEVVAGGKVVFHKLEHHHHHH | not soluble
MGYHTFDAGRADKLEDAQERYRSLSAEELCWALSASSDETVADLGSGTGFYTDDVAPAVDHVYAVDIQEAMHDYYRKKGVPDNVDLVTSAVDDLPFDTSSLDAAFSTMTYHEFASDGALREVARVLKPGGTFAIADWAASGSGRNGPPVDERFSAAEATDALRQHGFTVEFEAVRPETFLLVVSADLEHHHHHH | soluble
MYKILEIADVVKVPPEEFGKDLKETVKKILMEKYEGRLDKDVGFVLSIVDVKDIGEGKVVHGDGSAYHPVVFETLVYIPEMYELIEGEVVDVVEFGSFVRLGPLDGLIHVSQIMDDYVSYDPKREAIIGKETGKVLEIGDYVRARIVAISLKAERKRGSKIALTMRQPYLGKLEWIEEEKAKKQNQE | soluble
MGHHHHHHSHMWKVVNLPTDLFNSVMNVGRFTEEIEWLKFLALACSALGVTITKTLKIVCEVLSCDHNGGLPRIPFSTFQFLYTYIAEVDGEICASHVSRMLNYIEQEVIGPDGLITVNDFTQNPRVWLE | not soluble
STKLTGYVWDGCAASGMKLSSVAIMARLADFSNDEGVCWPSIETIARQIGAGMSTVRTAIARLEAEGWLTRKARRQGDGSSPHCAVVDEYHEHATDALYTTMLTGMGARRQPLMWAITTAGYNIEGPCYDKRREVIEMLNGSVPNDELFGIIYTVDEGDDWTDPQVLEKANPNIGVSVYREFLLSQQQRAKNNARLANVFKTKHLNIWASARSAYFNLVSWQSCEDKSLTLEQFEGQPCILAFDLARKLDMNSMARLYTREIDGKTHYYSVAPRFWVPYDTVYSVEKNEDRRTAERFQKWVEMGVLTVTDGAEVDYRYILEEAKAANKISPVSESPIDPFGATGLSHDLADEDLNPVTIIQNYTNMSDPMKELEAAIESGRFHHDGNPIMTWCIGNVVGKTIPGNDDVVKPVKEQAENKIDGAVALIMAVGRAMLYEKEDTLSDHIESYGIRSL | soluble
MTDLFASGDNSSNSFDDSNDEIARKNETAFKYTTIFHTNLSEKLYHELCALAFGEFDIPQGQISPLMWTRLHEIYSEVEMQTRKLPAGSNYSASSQKYANEAVQIASVLSIYTALAHEYDETVEVSLLSKLVVEDVEFRRIYALLLWSEKAISEQQYEKGLGDKVRKLEGIKSSRINSMMALKRPTFGAANAPKDASLDPDAPGTKEDQALEQMAMNVFFQLIRSGETSKAANLAIDLGMGAIGAQLQLHSMLRNPLDIPLEASKQNFGEYKRSRRAKYYQMTQKLIEQSQGSEDDAYWMLISAIRGNIQPMLKAGKSVIEKVWAYANSAVLARILAAEGAMTQETISTLFNVPLTSKSILDELRSEADRTKEVYILLRVIDDMLNDDIEDLYKFANETVGEFVPNDKNCQVNMLALDIFFHLVAVSYASGFEPNDDGNAVIILGFDDLRARSGTSSHKKMAAFYSRFLPEDMKLPEIVETMKAVDSDEEREILAESLKQSDIDFGRCACTLIEQIRKDDKTKVVTLEEQIDHWHWLLIGGEETALAALEECNRLVRKVMLSTPIDESVIRQIIRKALHFEVPKLLSQAVENEATVLSLITDGTLFEQKPGSQLAINKIEHAALEFYGLCSFVDVNNFMITIALKLGLMFKYTPITDDELSMIGGVKRLDNTTAADWEASLRVRARAEQTLREEVLKKRAAEHNTRVGMVQQHLDTVLPMLRGLVNNIGVRPEYFLSPRANGDPMRVHRKEIQEIRNLFLPQFFILLAQAAVRLDDTTNFNDFFTSFNNDLGLDQEWMVFIKAFYAELNLKVE | soluble
MAHHHHHHMPCEGCGLSEAAMQCPTCKKLDMPPSYFCSQACFKEHWADHKLKHTQSALPTIPTMTEAAMNAFNFTGSLRPGRITPRRAVPSHIPRPDYANRADGLSPAEEKDRGAKVRVYNLQSLHDDSKETADIQRVKKVCRLSREVLDIATAAVRPGVTTDEIDRIVHEATIERDMYPSPLNYYNFPKSVCTSVNEVICHGIPDSRGLEEGDIVNIDVSSYLNGFHGDLNETVFVGKPDADSVRLVHAAYESLYAGIKVVKPEALYKHVGDAIEACAVQYGCSVVRAYTGHGVGHLFHTAPTVCHYANNKSLGMMRPGHVFTIEPMINLGTWQDVTWPDNWTSTTRDGKRSAQFEHTMVVTNDGAELFTDWTDGIPTYQKQLEGWNIPLPSPSNGVAH | not soluble
MMLITDTGVPERYIDTDEWGGEVMLRLDDGWCAALDRNTMMCTIYEKRPLICREFEAGAEDCLTERKGIATAYLLEHHHHHH | not soluble
MGSDKIHHHHHHMGIPKRKLGERGPEVSAIGLGCMRMSFGQKKLPDRKEMIKLIRTAVELGINFFDTAEVYGPYTNEELVGEALEPFKGEVVIATKFGFELYEDGRPGWKGLNSNPEHIKKAVEGSLRRLRVEAIDILYQHRVDPNVPIEEVAGAVKELIEEGKVKHFGLCEASAETIRRAHKVCPVDVVQYEYSMWWRKPEEELLPTCEELGIGFVAYSPLGKGFLTGAIGENSKFDEEDSRSRIPRFQKENLRENLALVELRKTIAERKGATPSQIALAWLLAQKPWIVPIPGTTKLSHLLENIGGAFVELTPEELQEINDALSRIEIKGSRYPEDMEKMTYL | not soluble

Source: the DeepSol protein solubility set
